# B1: ADR4-11 (other)
# chain: EVQLLESGGGLVQPGGSLRLSCAASGVIFTDQTMGWVRQAPGKGLEWVSAIKTRDGSTYYADSVKGRFTISRDNSKNTLYLQMNSLRAEDTAVYYCARFLRPNASRGSAREAQIHSWGQGTLVTVSS
# B2: ADR4-13 (other)
# chain: EVQLLESGGGLVQPGGSLRLSCAASGFSISYKNMAWVRQAPGKGLEWVSAIKAANGSTYYADSVKGRFTISRDNSKNTLYLQMNSLRAEDTAVYYCATGSQKKRTYTFDFWGQGTLVTVSS
# B3: ADR4-5 (other)
# chain: EVQLLESGGGLVQPGGSLRLSCAASGDRISSEFMGWVRQAPGKGLEWVSAIYKPNGSTYYADSVKGRFTISRDNSKNTLYLQMNSLRAEDTAVYYCARGRARRTESTYQLRYWGQGTLVTVSS
# B4: ADR4-3 (other)
# chain: EVQLLESGGGLVQPGGSLRLSCAASGFTFAQYRMAWVRQAPGKGLEWVSQINAQGTQTGYADSVKGRFTISRDNSKNTLYLQMNSLRAEDTAVYYCAKWVGGARYTFDYWGQGTLVTVSS
# B5: ADR4-12 (other)
# chain: EVQLLESGGGLVQPGGSLRLSCAASGDTVSSKAMAWVRQAPGKGLEWVSGIFIPNGSTYYADSVKGRFTISRDNSKNTLYLQMNSLRAEDTAVYYCAAKQRAVLSRWGSSTEFGSWGQGTLVTVSS
# B6: ADR4-7 (other)
# chain: EVQLLESGGGLVQPGGSLRLSCAASGYSVTYQNMAWVRQAPGKGLEWVSTITVPNGSTYYADSVKGRFTISRDNSKNTLYLQMNSLRAEDTAVYYCAGLGEVLRDGNANVQFWGQGTLVTVSS
# B7: ADR4-9 (other)
# chain: EVQLLESGGGLVQPGGSLRLSCAASGVRLSHQVMGWVRQAPGKGLEWVSAIRSSDGSTYYADSVKGRFTISRDNSKNTLYLQMNSLRAEDTAVYYCAGWRSAKSQMHYWGQGTLVTVSS
# B8: ADR4-10 (other)
# chain: EVQLLESGGGLVQPGGSLRLSCAASGVSVSAYTMSWVRQAPGKGLEWVSAILKKNGSTYYADSVKGRFTISRDNSKNTLYLQMNSLRAEDTAVYYCAGRPSVTFGGPGKRYDYHFQYWGQGTLVTVSS
# B9: ADR4-4 (other)
# chain: EVQLLESGGGLVQPGGSLRLSCAASGFTFLDYQMSWVRQAPGKGLEWVSGISRSGNKTKYADSVKGRFTISRDNSKNTLYLQMNSLRAEDTAVYYCAKWAGLNRHDFDYWGQGTLVTVSS
# B10: ADR4-8 (other)
# chain: EVQLLESGGGLVQPGGSLRLSCAASGFSLSYKVMGWVRQAPGKGLEWVSAINRENGSTYYADSVKGRFTISRDNSKNTLYLQMNSLRAEDTAVYYCAGFARRGAPHSASVEFWGQGTLVTVSS
# B11: ADR4-6 (other)
# chain: EVQLLESGGGLVQPGGSLRLSCAASGFRVSNYDLTWVRQAPGKGLEWVSTISATNGSTYYADSVKGRFTISRDNSKNTLYLQMNSLRAEDTAVYYCAAVTWWLLRHNDNLGFWGQGTLVTVSS
# Molecular target: native, highly purified SAP2 preparation (Candida albicans, UniProt P0CS83 57-398)
# Assay: cell-based or functional assay
# native, highly purified SAP2 preparation, sequence (P0CS83 57-398 limits assumed): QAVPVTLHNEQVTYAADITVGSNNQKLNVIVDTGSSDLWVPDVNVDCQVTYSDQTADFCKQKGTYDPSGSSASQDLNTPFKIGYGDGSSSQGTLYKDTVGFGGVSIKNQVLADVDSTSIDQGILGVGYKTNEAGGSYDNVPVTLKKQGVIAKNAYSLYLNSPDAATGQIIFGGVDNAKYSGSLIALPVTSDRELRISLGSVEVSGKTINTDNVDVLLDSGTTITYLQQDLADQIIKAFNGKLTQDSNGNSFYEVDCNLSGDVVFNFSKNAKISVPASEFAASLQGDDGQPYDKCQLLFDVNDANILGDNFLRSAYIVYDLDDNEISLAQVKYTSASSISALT
Molecule,"% Inhibition (BSA degradation, proteinase enzyme assay) [%]","ΔOD/ml/min (BSA degradation, proteinase enzyme assay)"
pepstatin A (peptide),100,0.36 ΔOD/ml/min
B1,29,0.8 ΔOD/ml/min
B2,82,0.46 ΔOD/ml/min
B3,0,1 ΔOD/ml/min
B4,40,0.66 ΔOD/ml/min
B5,60,0.6 ΔOD/ml/min
B6,61,0.7 ΔOD/ml/min
B7,5,0.93 ΔOD/ml/min
B8,13,0.83 ΔOD/ml/min
B9,32,0.76 ΔOD/ml/min
B10,0,1 ΔOD/ml/min
B11,78,0.5 ΔOD/ml/min

# Source: patent publication US20080193450A1 (ISTITUTO SUPERIORE DI SANITA, published 2008)
